Results reported in patent publication US20220380421A1 (University of California, published 2022).

What was measured:
Myc-tagged Apo-SpyCas9 = biological target: T1, Myc-tagged Apo-SpyCas9 (Streptococcus pyogenes, UniProt Q99ZW2 1-1368); assay: GST-Acr immunoprecipitation from P. aeruginosa expressing Myc-tagged Apo-SpyCas9 without sgRNA; immunoblot (FIGS. 3D, 7C)
T1 construct: not shown: 3xMyc tag at the C-terminus

Myc-tagged SpyCas9-sgRNA [1] = biological target: T2, Myc-tagged SpyCas9-sgRNA (Streptococcus pyogenes, UniProt Q99ZW2 1-1368); assay: co-immunoprecipitation of Myc-tagged SpyCas9-sgRNA from P. aeruginosa co-expressing GST-Acr; immunoblot and Coomassie gel (FIG. 3B)
T2 construct: not shown: 3xMyc tag at the C-terminus

Myc-tagged SpyCas9-sgRNA [2] = biological target: T2, Myc-tagged SpyCas9-sgRNA; assay: discussion of the co-immunoprecipitation results; state of SpyCas9 not named there

T2 sequence (Q99ZW2 whole entry): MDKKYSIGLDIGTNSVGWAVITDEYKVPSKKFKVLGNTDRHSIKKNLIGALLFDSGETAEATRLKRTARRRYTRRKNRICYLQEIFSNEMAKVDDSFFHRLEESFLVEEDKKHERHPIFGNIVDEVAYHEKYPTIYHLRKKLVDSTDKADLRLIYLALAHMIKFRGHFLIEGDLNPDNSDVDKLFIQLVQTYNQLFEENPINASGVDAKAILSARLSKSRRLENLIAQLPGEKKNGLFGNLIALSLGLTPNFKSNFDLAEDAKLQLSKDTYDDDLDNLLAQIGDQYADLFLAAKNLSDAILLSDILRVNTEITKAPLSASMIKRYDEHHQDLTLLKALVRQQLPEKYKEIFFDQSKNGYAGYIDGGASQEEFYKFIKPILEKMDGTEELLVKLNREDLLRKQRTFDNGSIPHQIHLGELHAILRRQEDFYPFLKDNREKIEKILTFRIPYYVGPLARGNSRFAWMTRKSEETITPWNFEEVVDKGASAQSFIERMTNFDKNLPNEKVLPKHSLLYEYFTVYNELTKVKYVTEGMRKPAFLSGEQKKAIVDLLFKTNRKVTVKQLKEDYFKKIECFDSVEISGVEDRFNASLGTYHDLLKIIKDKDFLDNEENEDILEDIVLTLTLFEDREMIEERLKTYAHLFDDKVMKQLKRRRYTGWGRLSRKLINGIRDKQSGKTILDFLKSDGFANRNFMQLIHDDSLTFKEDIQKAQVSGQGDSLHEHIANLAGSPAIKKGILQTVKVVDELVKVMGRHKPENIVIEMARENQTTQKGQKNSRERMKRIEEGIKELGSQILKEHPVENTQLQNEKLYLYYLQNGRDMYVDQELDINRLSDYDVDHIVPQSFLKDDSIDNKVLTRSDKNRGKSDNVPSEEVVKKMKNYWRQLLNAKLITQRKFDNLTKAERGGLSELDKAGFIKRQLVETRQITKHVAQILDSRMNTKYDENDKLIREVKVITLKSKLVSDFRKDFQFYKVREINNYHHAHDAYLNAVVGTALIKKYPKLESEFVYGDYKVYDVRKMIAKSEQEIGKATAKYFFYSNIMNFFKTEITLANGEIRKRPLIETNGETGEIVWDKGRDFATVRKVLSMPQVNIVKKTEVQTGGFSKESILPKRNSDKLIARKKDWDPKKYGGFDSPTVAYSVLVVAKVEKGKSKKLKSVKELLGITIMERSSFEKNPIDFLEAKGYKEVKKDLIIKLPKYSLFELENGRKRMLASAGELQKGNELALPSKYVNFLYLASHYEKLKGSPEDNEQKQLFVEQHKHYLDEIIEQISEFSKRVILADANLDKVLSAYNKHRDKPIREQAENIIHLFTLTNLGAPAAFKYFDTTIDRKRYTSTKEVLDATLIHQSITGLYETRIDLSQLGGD
T1 sequence (Q99ZW2 whole entry): as above

B1: GST-AcrIIA16_Lmo (other)
chain: MGYIGTKRSERSQDAIEDYEVPLNHFNKDLIQAFIDENEAYDTLKTKKVRLWKFVAPRAGATSWHHTGTYYNKTDHYSLEKVADELLQNGDEWEEQFKAYVKEEQETATSEPVFLSVIKVQIWGGSMKRPKLVGHEVVMGVKKEGWLHAVSKATQSKYKLSANKVEMQKHYSLEDYSALTKDFPEFKAQKRAINKKMKEMYN
B1: binds (Myc-tagged Apo-SpyCas9); binds (Myc-tagged SpyCas9-sgRNA [1]).

B2: GST-AcrIIA17_Sga (other)
chain: MKISVDSEKLLNEAINDFDIFGEDFNVYAIYSYREDYDFEYISDYVDADEPTRDEFETEEDYQEVMKDFKENLDSLKFTKHKKMTIADLVHELWEQNRIF
notes: also called GST-AcrIIA7_Sga
B2: binds (Myc-tagged SpyCas9-sgRNA [2]); binds (Myc-tagged Apo-SpyCas9).

B3: GST-AcrIIA19_Ssim (other)
chain: MKLIVEVEETNYKNLVNYTKLTNESHNILVNRLISEYITKPYELRLDLSERYSNRDLIEFKFMLIEYCKEALQDIKELANSDEAYETDEAFEAVFRQLFEEVISNPDTVLKAFHSYTSFLEENK
B3: binds (Myc-tagged SpyCas9-sgRNA [2]); binds (Myc-tagged Apo-SpyCas9).
